Reference: patent US20260001914A1, “MACROCYCLIC PEPTIDES TARGETING KRAS” (Merck Sharp & Dohme LLC, priority 2022, published 2026)

Experiments:
[1] = target: KRAS-G12D in AsPC-1 cells (UniProt P01116); experiment: cell-based or functional assay
[2] = target: Biotin-labeled KRAS-G12D protein (UniProt P01116-2 1-169, limits assumed, biotin label (site not stated); loaded with BODIPY-GDP); experiment: cell-based or functional assay

AlphaScreen @18 h, EC50 [1] | SOS assay EC50 [2] | Substance
> 50.9 µM | 0.0128 µM | cyclo(F-R-3Pal-Nle-Phe2F-Nle-NMeF-aMeC1-C1Ac) (peptide)
> 50.9 µM | 4.41 µM | cyclo(F-R-3Pal-cBuA-NvaOMe-Nle-NMeF-aMeC1-C1Ac (peptide)
> 50.9 µM | 3.75 µM | cyclo(FLac-AlaCN-3Pal-Nle-Phe2F-Nle-NMe3Pal-amBCP) (peptide)
50.2 µM | 1.45 µM | cyclo(FLac-NMeA-3Pal2F-Nle-Phe2F-Nle-NMe3Pal-amBCP) (peptide)
7.3 µM | 0.036 µM | cyclo(FLac-NMeA-3Pal-Nle-Phe2F-Nle-NMe3Pal-amBCP) (peptide)
> 50.9 µM | 2.94 µM | cyclo(FLac-NMeA-3Pal-Nle-Phe2F-Nle-NMeCha-amBCP) (peptide)
1.44 µM | 0.0503 µM | cyclo(FLac-NMeA-3Pal-Nle-Phe2F-Nle-NMeF-amBCP) (peptide)
> 50.9 µM | 0.154 µM | cyclo(FLac-NMeA-3Pal-Nle-Phe2F-Nva-NMe3Pal-amBCP) (peptide)
4.65 µM | 0.00217 µM | cyclo(FLac-NMeA-3Pal-Nle-Phe2F-hL-NMe3Pal-amBCP) (peptide)
> 50.9 µM | 0.0351 µM | cyclo(FLac-NMeA-3Pal-NvaF-Phe2F-Nle-NMe3Pal-amBCP) (peptide)
0.886 µM | 0.0379 µM | cyclo(FLac-NMeA-3Pal-cBuA-TyrOMe-Ahp-NMeF-amBCP) (peptide)
> 50.9 µM | 0.87 µM | cyclo(FLac-NMeA-4F3Pal-Nle-2Pal6F-Nle-NMeF-amBCP) (peptide)
11.8 µM | 0.0187 µM | cyclo(FLac-NMeA-4F3Pal-Nle-Phe2F-Nle-NMe3Pal-amBCP) (peptide)
0.589 µM | 0.0724 µM | cyclo(FLac-NMeA-4F3Pal-Nle-Phe2F-Nle-NMeF-amBCP) (peptide)
> 50.9 µM | 0.997 µM | cyclo(FLac-NMeA-4F3Pal-Nle-Phe2F-Nva-NMeF-amBCP) (peptide)
> 50.9 µM | 0.00438 µM | cyclo(FLac-NMeA-PyrimAla-L-Phe2F-Nle-NMe3Pal-amBCP) (peptide)
7.73 µM | 0.114 µM | cyclo(FLac-NMeA-PyrimAla-Leu3F-Phe2F-hL-NMeF-amBCP) (peptide)
48.7 µM | 0.559 µM | cyclo(FLac-NMeA-PyrimAla-Nle-2Pal6F-Nle-NMeF-amBCP) (peptide)
23.4 µM | 0.0335 µM | cyclo(FLac-NMeA-PyrimAla-Nle-Phe2F-Nle-NMe3Pal-SMeamBCP) (peptide)
13.4 µM | 0.0336 µM | cyclo(FLac-NMeA-PyrimAla-Nle-Phe2F-Nle-NMe3Pal-amBCP) (peptide)
0.59 µM | 0.0174 µM | cyclo(FLac-NMeA-PyrimAla-Nle-Phe2F-Nle-NMeF-amBCP) (peptide)
0.734 µM | 0.0122 µM | cyclo(FLac-NMeA-PyrimAla-Nle-Phe2F-Nle-NMePhe3F-amBCP) (peptide)
0.256 µM | 0.00603 µM | cyclo(FLac-NMeA-PyrimAla-Nle-Phe2F-Nle-NMePhe3Me-amBCP) (peptide)
0.994 µM | 0.0125 µM | cyclo(FLac-NMeA-PyrimAla-Nle-Phe2F-Nle-NMePhe4F-amBCP) (peptide)

AlphaScreen @18 h, EC50 [1] | SOS assay EC50 [2] | Substance
0.223 µM | 0.0191 µM | cyclo(FLac-NMeA-PyrimAla-Nle-Phe2F-Nle-NMePhe4Me-amBCP) (peptide)
0.439 µM | 0.011 µM | cyclo(FLac-NMeA-PyrimAla-Nle-Phe2F-Nle-NMeYOMe-amBCP) (peptide)
2.33 µM | 0.0101 µM | cyclo(FLac-NMeA-PyrimAla-Nle-Phe2F-NleF-NMeF-amBCP) (peptide)
11.2 µM | 0.59 µM | cyclo(FLac-NMeA-PyrimAla-Nle-Phe2F-Nlecalken3Pal-amBCP) (peptide)
1.11 µM | 0.00787 µM | cyclo(FLac-NMeA-PyrimAla-Nle-Phe2F-hL-NMeF-amBCP) (peptide)
2.03 µM | 0.00243 µM | cyclo(FLac-NMeA-PyrimAla-NleF-Phe2F-Nle-NMeF-amBCP) (peptide)
3.72 µM | 0.0374 µM | cyclo(FLac-NMeA-PyrimAla-NleF-Phe2F-NleF-NMeF-amBCP) (peptide)
2.26 µM | 0.00779 µM | cyclo(FLac-NMeA-PyrimAla-NvaF-Phe2F-hL-NMeF-amBCP) (peptide)
0.542 µM | 0.00239 µM | cyclo(FLac-NMeA-PyrimAla-cBuA-Phe2F-Nle3F2-NMeF-amBCP) (peptide)
0.674 µM | 0.00187 µM | cyclo(FLac-NMeA-PyrimAla-cBuA-Phe2F-hL3F-NMeF-amBCP) (peptide)
0.33 µM | 0.00647 µM | cyclo(FLac-NMeA-PyrimAla-cBuA-Phe2F-hL-NMeF-amBCP) (peptide)
0.437 µM | 0.004 µM | cyclo(FLac-NMeA-PyrimAla-cBuA-Phe2F-hcPrA-NMeF-amBCP) (peptide)
17.4 µM | 0.0223 µM | cyclo(FLac-NMeA-PyrimAla-cPeA-Phe2F-Nle-NMe3Pal-amBCP) (peptide)
0.285 µM | 0.00413 µM | cyclo(FLac-NMeA-PyrimAla-cPeA-Phe2F-hL-NMeF-amBCP) (peptide)
4.18 µM | 0.031 µM | cyclo(FLac-NMeA-PyrimAla-cPrA-3Pal2F-hL-NMeF-amBCP) (peptide)
41.2 µM | 0.225 µM | cyclo(FLac-NMeA-PyrimAla-cPrA-Phe2F-Hag-NMeHag-amBCP) (peptide)
0.168 µM | 0.00195 µM | cyclo(FLac-NMeA-PyrimAla-cPrA-Phe2F-hL-NMeF-amBCP) (peptide)
0.615 µM | 0.002 µM | cyclo(FLac-NMeA-PyrimAla-cPrA-Phe2F-hcPrA-NMeF-amBCP) (peptide)
> 50.9 µM | 0.228 µM | cyclo(FLac-NMeA-PyrimAla-hL-Phe2F-Nle-NMe3Pal-amBCP) (peptide)
> 50.9 µM | 0.236 µM | cyclo(FLac-NMeA-PyrimAla-rF2Cba-Phe2F-Nle-NMe3Pal-amBCP) isomer 1 (peptide)
> 50.9 µM | 8.19 µM | cyclo(FLac-NMeA~PyrimAla-rF2Cba-Phe2F-Nle-NMe3Pal-amBCP) isomer 2 (peptide)
3.48 µM | 5.59 µM | cyclo(FLac-NMeDabN3-3Pal-Nle-F2FLac-Nle-NMe3Pal-amBCP) (peptide)
3.95 µM | 0.0876 µM | cyclo(FLac-NMeDabN3-3Pal-Nle-Phe2F-Nle-NMe3Pal-amBCP) (peptide)
6.12 µM | 0.435 µM | cyclo(FLac-NMeDabN3-4CF33Pal-Nle-Phe2F-Nle-NMe3Pal-amBCP) (peptide)
